Results on 14 molecules are retold here after US20230192839A1 (published 2023).

One may read the Kd as the concentration at which binding is half-saturated. By koff is commonly meant the rate constant with which the complex falls apart. Low readings indicate a long-lived complex, high ones a short-lived complex. As usually defined, the kon is the second-order rate constant of association.

Residue numbers refer to the chain shown, from its start.

In assay [1] the target is T1, human epidermal growth factor receptor antigen (human, UniProt P00533 25-645, limits assumed).
T1 construct: whole entry named; also called EGFR
The experiment in a line: SPR (Biacore T200), 37 C, scFv-Fc, 10 uM MTX. The method, then:
(§1) All binding kinetics analysis was performed on label-free Biacore surface plasmon biosensors (Biacore T200™ from GE Life Sciences) at 37° C. in 10 mM Hepes pH 7.4, 150 mM NaCl, 0.05% Tween-20 (HBST+), with or without 10 µM MTX. The Biacore data were processed in Biacore T200 Evaluation Software, and the data were double-referenced (Myszka, 1999, J Mol Recognit 12(5):279-284) and fit globally to a simple Langmuir with mass transport model to determine the equilibrium dissociation constant, KD, from the ratio of the kinetic rate constants (KD = koff/kₒₙ). In some cases the binding of antigen was very low (or not detectable) in the presence of 10 µM MTX and as a result kinetic rate constants could not be accurately determined. In these cases, a KD (or KD limit) was estimated based on the binding response at the highest analyte concentration tested or based on the typical limit of detection for a Biacore T200.
(§2) The first 4 rounds of panning used biotinylated EGFR antigen captured on streptavidin or neutravidin coated 96-well plates. […] 1536 clones were randomly chosen from the 4th and 5th round of panning against the EGFR antigen and their binding specificity determined by phage ELISA.
(§3) “*”: For interactions where kₒₙ and koff are reported, the KD was calculated using koff/kₒₙ.
(In general: Surface plasmon resonance follows binding to a sensor surface in real time, without labels.)

For assay [2], the target named is T1, human epidermal growth factor receptor …. As to the kind of experiment: SPR (Biacore T200), 37 C; KD at 10 uM MTX / KD at 0 uM MTX. As for the experimental part: as §1, §2
The target is the same in assay [3]. As to the kind of experiment: SPR (Biacore T200), 37 C, scFv-Fc, 0 uM MTX. As for the experimental part: as §1, §2
Assay [4] has as its target T2, human CD33 antigen (human, UniProt P20138 18-259, limits assumed).
T2 construct: whole entry named; also called Siglec-3
As to the kind of experiment: SPR (Biacore T200), 37 C, scFv-Fc, 10 uM MTX. The method, then: as §1, §3

The target in assay [5] is T2, human CD33 antigen. As to the kind of experiment: SPR (Biacore T200), 37 C, scFv-Fc, 0 uM MTX. As for the experimental part:
as §1

The target of assay [6] is T2, human CD33 antigen. As to the kind of experiment: SPR (Biacore T200), 37 C; KD at 10 uM MTX / KD at 0 uM MTX. As for the experimental part: as §1
For assay [7], the target named is T2, human CD33 antigen. As to the kind of experiment: SPR (Biacore T200), 37 C, scFv-Fc, 10 uM MTX; KD estimated, rate constants not determined. As for the experimental part: as §1, §3

T2 sequence (P20138 18-259 limits assumed): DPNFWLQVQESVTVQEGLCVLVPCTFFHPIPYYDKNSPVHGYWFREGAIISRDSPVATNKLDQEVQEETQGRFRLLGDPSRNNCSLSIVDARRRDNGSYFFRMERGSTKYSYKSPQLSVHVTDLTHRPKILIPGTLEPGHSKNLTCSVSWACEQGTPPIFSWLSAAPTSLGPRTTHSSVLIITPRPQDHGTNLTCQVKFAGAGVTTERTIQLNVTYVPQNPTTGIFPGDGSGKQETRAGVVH

B1: P14_E03 scFv-Fc fusion (scFv, V domains shown)
VH: QVQLVESGGGLVQAGGSLRLSCAASRRSSRSWAMHWVRQAPGKGLEWVAVISYDGRLKYYADSVKGRFTISRDNAEYLVYLQMNSLRAEDTAVYYCAAAPRVDWSDVSSGIDYWGQGTLVTVSS
VL: QSVLTQPPSASGTPGQRVTISCSGSISNIGTNNVYWYQQLPGTAPKLLIYRNNQRPSGVPDRFSGSKSGTSASLAISGLRSEDEADYYCSAWDDSLSGVVFGTGTKLTVL
notes: Tested as scFv-Fc fusion
As to B1, in assay [1], the dissociation constant Kd turned out to be 25 nM, the koff amounted to 0.00072 s⁻¹ and the kon is 29000 M⁻¹ s⁻¹. Moreover, the “Ratio: KD with MTX / KD without MTX” value in assay [2] worked out at 3.9. In addition, in assay [3], the equilibrium dissociation constant (Kd) is 6.3 nM, the koff came out at 0.00067 s⁻¹ and the kon stood at 110000 M⁻¹ s⁻¹.

B2: P01_F02 scFv-Fc fusion (scFv, V domains shown)
VH: QVQLVESGGGLVQAGGSLRLSCAASRRSSRSWAMHWVRQAPGKGLEWVAVISYDGRLKYYADSVKGRFTISRDNAEYLVYLQMNSLRAEDTAVYYCAADVESALAYGEPYHHMDVWGQGTLVTVSS
VL: B1 VL with I26S, T31R, N33Y, N52T, N53S, S90A, A91T, V99W
notes: Tested as scFv-Fc fusion
With B2, the “Ratio: KD with MTX / KD without MTX” value in assay [2] was above 50. Besides, in assay [3], the Kd was 188 nM, the koff worked out at 0.011 s⁻¹ and the kon came out at 61000 M⁻¹ s⁻¹.

B3: P08_E05 scFv-Fc fusion (scFv, V domains shown)
VH: QVQLVESGGGLVQAGGSLRLSCAASRRSSRSWAMHWVRQAPGKGLEWVAVISYDGRLKYYADSVKGRFTISRDNAEYLVYLQMNSLRAEDTAVYYCAADGKGAAWSEVDEPDVWGQGTLVTVSS
VL: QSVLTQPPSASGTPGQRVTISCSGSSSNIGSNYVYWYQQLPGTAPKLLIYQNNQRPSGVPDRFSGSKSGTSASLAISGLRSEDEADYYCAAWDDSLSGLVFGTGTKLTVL
notes: Tested as scFv-Fc fusion
For the molecule B3, in assay [1], the Kd came out at 480 nM, the koff was found to be 0.073 s⁻¹ and the kon worked out at 150000 M⁻¹ s⁻¹. Moreover, in assay [2], the “Ratio: KD with MTX / KD without MTX” value was found to be 1.3. In assay [3], the Kd amounted to 360 nM, the koff turned out to be 0.071 s⁻¹ and the kon stood at 200000 M⁻¹ s⁻¹.

B4: P01_B06 scFv-Fc fusion (scFv, V domains shown)
VH: QVQLVESGGGLVQAGGSLRLSCAASRRSSRSWAMHWVRQAPGKGLEWVAVISYDGRLKYYADSVKGRFTISRDNAEYLVYLQMNSLRAEDTAVYYCAADTSMFASYDPMDVWGQGTLVTVSS
VL: QSVLTQPPSASGTPGQRVTISCSGSSSNIGRNYVNWYQQLPGTAPKLLIYRDDHRPSGVPDRFSGSKSGTSASLAISGLRSEDEADYYCASWDDTLSGWVFGTGTKLTVL
notes: Tested as scFv-Fc fusion
In assay [1], B4 came in with a Kd of 256 nM, a koff of 0.026 s⁻¹ and a kon of 100000 M⁻¹ s⁻¹. Moreover, the “Ratio: KD with MTX / KD without MTX” value in assay [2] turned out to be 1.1. In assay [3], the Kd was determined as 230 nM, the koff is 0.024 s⁻¹ and the kon came to 100000 M⁻¹ s⁻¹.

B5: P08_D06 scFv-Fc fusion (scFv, V domains shown)
VH: QVQLVESGGGLVQAGGSLRLSCAASRRSSRSWAMHWVRQAPGKGLEWVAVISYDGRLKYYADSVKGRFTISRDNAEYLVYLQMNSLRAEDTAVYYCAADDDGDVYAGYSYGGFDYWGQGTLVTVSS
VL: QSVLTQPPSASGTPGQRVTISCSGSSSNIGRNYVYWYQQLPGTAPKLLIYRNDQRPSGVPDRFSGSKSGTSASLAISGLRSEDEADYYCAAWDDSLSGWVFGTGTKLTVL
notes: Tested as scFv-Fc fusion
In assay [1], B5 showed a Kd of 1390 nM, a koff of 0.033 s⁻¹ and a kon of 24000 M⁻¹ s⁻¹. Further, in assay [2], the “Ratio: KD with MTX / KD without MTX” value was determined as 7.5. In assay [3], the Kd worked out at 185 nM, the koff amounted to 0.013 s⁻¹ and the kon is 71000 M⁻¹ s⁻¹.

B6: P05_A11 scFv-Fc fusion (scFv, V domains shown)
VH: B5 VH with D99S, G102A, V104I, Y105F, A106D, G107D, G112A, F113M
VL: B4 VL with N35Y, R51M, D52T, D53S, H54Q, T95N, S97R, G98A
notes: Tested as scFv-Fc fusion
On to B6, for which, in assay [1], the Kd was found to be 580 nM, the koff is 0.05 s⁻¹ and the kon was 87000 M⁻¹ s⁻¹. In assay [2], the “Ratio: KD with MTX / KD without MTX” value came out at 2.5. Further, in assay [3], the Kd came out at 235 nM, the koff is 0.028 s⁻¹ and the kon worked out at 120000 M⁻¹ s⁻¹.

B7: P15_F02 scFv-Fc fusion (scFv, V domains shown)
VH: QVQLVESGGGLVQAGGSLRLSCAASRRSSRSWAMHWVRQAPGKGLEWVAVISYDGRLKYYADSVKGRFTISRDNAEYLVYLQMNSLRAEDTAVYYCAAARDVDGSGYDTIDVWGQGTLVTVSS
VL: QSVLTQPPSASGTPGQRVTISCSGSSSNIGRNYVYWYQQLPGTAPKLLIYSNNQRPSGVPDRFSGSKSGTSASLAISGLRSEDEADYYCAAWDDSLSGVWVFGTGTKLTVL
notes: Tested as scFv-Fc fusion
In the case of B7, in assay [1], the Kd was found to be 2530 nM, the koff was 0.13 s⁻¹ and the kon amounted to 50000 M⁻¹ s⁻¹. In assay [2], the “Ratio: KD with MTX / KD without MTX” value was found to be 9.5. For the same molecule, in assay [3], the Kd came out at 266 nM, the koff is 0.022 s⁻¹ and the kon worked out at 82000 M⁻¹ s⁻¹.

B8: P01_H04 scFv-Fc fusion (scFv, V domains shown)
VH: B7 VH with A99D, R100M, V102D, D103M, G104L, G106Y, D108N, T109S, I110F, V112I
VL: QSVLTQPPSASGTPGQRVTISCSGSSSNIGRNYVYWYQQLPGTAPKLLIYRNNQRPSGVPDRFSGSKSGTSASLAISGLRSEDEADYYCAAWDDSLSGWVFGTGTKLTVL
notes: Tested as scFv-Fc fusion
Turning to B8, the “Ratio: KD with MTX / KD without MTX” value in assay [2] is above 2. In assay [3], this molecule yielded a Kd of 889 nM, a koff of 0.076 s⁻¹ and a kon of 85000 M⁻¹ s⁻¹.

B9: P04_C05 scFv-Fc fusion (scFv, V domains shown)
VH: QVQLVESGGGLVQAGGSLRLSCAASRRSSRSWAMHWVRQAPGKGLEWVAVISYDGRLKYYADSVKGRFTISRDNAEYLVYLQMNSLRAEDTAVYYCAAGLPWTDYWGQGTLVTVSS
VL: QSVLTQPPSASGTPGQRVTISCSGSNSNIGSNYVSWYQQLPGTAPKLLIYSNNQRPSGVPDRFSGSKSGTSASLAISGLRSEDEADYYCAAWDDRLSVVFGTGTKLTVL
notes: Tested as scFv-Fc fusion
As for B9, in the assay with human CD33 antigen [4], binding was put at a Kd of 298 nM, the koff turned out to be 0.013 s⁻¹ and the kon was 45000 M⁻¹ s⁻¹. In addition, in the assay with human CD33 antigen [5], the Kd is 25 nM, the koff was 0.0021 s⁻¹ and the kon is 83000 M⁻¹ s⁻¹. Further, in the assay with human CD33 antigen [6], the “Ratio: KD with MTX / KD without MTX” value amounted to 12.

B10: P01_A09 scFv-Fc fusion (scFv, V domains shown)
VH: QVQLVESGGGLVQAGGSLRLSCAASRRSSRSWAMHWVRQAPGKGLEWVAVISYDGRLKYYADSVKGRFTISRDNAEYLVYLQMNSLRAEDTAVYYCAAERPTSDGSTGGMDVWGQGTLVTVSS
VL: DIQMTQSPSSLSASVGDRVTITCRASQSISSYLNWYQQKPGKAPKLLIYGASTLQSGVPSRFSGSGSGTDFTLTISSLQPEDFATYYCQQSYSSGTFGQGTKVEIK
notes: Tested as scFv-Fc fusion
For B10, in the assay with human CD33 antigen [7], the Kd is 1300 nM. For the same molecule, in the assay with human CD33 antigen [5], the Kd came to 154 nM, the koff turned out to be 0.017 s⁻¹ and the kon is 110000 M⁻¹ s⁻¹. Also, the “Ratio: KD with MTX / KD without MTX” value with human CD33 antigen [6] stood at 8.5.

B11: P02_H01 scFv-Fc fusion (scFv, V domains shown)
VH: QVQLVESGGGLVQAGGSLRLSCAASRRSSRSWAMHWVRQAPGKGLEWVAVISYDGRLKYYADSVKGRFTISRDNAEYLVYLQMNSLRAEDTAVYYCAAGSGGGDGLDVWGQGTLVTVSS
VL: B10 VL with S28T, G50S, A51S, S56G
notes: Tested as scFv-Fc fusion
Turning to B11, the Kd with human CD33 antigen [7] was 4340 nM. In the assay with human CD33 antigen [5], this molecule showed a Kd of 1320 nM, a koff of 0.037 s⁻¹ and a kon of 28000 M⁻¹ s⁻¹. Moreover, the “Ratio: KD with MTX / KD without MTX” value in the assay with human CD33 antigen [6] is 3.3.

B12: P03_A01 scFv-Fc fusion (scFv, V domains shown)
VH: QVQLVESGGGLVQAGGSLRLSCAASRRSSRSWAMHWVRQAPGKGLEWVAVISYDGRLKYYADSVKGRFTISRDNAEYLVYLQMNSLRAEDTAVYYCAAETGSVGLDYWGQGTLVTVSS
VL: B10 VL with S28G, S31T, S52T, T53S, Q55E, S91G, S94Q
notes: Tested as scFv-Fc fusion
Take B12: the Kd with human CD33 antigen [7] was 4270 nM. Further, in the assay with human CD33 antigen [5], the Kd was 115 nM, the dissociation rate constant (koff) worked out at 0.0057 s⁻¹ and the kon stood at 50000 M⁻¹ s⁻¹. In addition, in the assay with human CD33 antigen [6], the “Ratio: KD with MTX / KD without MTX” value came out at 37.

B13: P02_E11 scFv-Fc fusion (scFv, V domains shown)
VH: B11 VH with G99E, S100A, G101S, G102T, G103D, D104N, V108Y
VL: B10 VL with S28T, S31R, Y32H, G50S, T53S, Q55A, Y92H, S94A
notes: Tested as scFv-Fc fusion
With B13, the equilibrium dissociation constant (Kd) with human CD33 antigen [7] is 14600 nM. In the assay with human CD33 antigen [5], the Kd amounted to 66 nM, the koff came to 0.0038 s⁻¹ and the kon came to 58000 M⁻¹ s⁻¹. Besides, the “Ratio: KD with MTX / KD without MTX” value with human CD33 antigen [6] was found to be 221.

B14: P07_H08 scFv-Fc fusion (scFv, V domains shown)
VH: QVQLVESGGGLVQAGGSLRLSCAASRRSSRSWAMHWVRQAPGKGLEWVAVISYDGRLKYYADSVKGRFTISRDNAEYLVYLQMNSLRAEDTAVYYCAAGFDWGWDSSDIYSAMDYWGQGTLVTVSS
VL: DIQMTQSPSSLSASVGDRVTITCRASQNIGRYLHWYQQKPGKAPKLLIYSASNLQSGVPSRFSGSGSGTDFTLTISSLQPEDFATYYCQQSYSSPFTFGQGTKVEIK
notes: Tested as scFv-Fc fusion
For B14, the “Ratio: KD with MTX / KD without MTX” value in assay [2] was above 11. In assay [3], the Kd turned out to be 823 nM, the koff is 0.27 s⁻¹ and the kon is 330000 M⁻¹ s⁻¹.
